According to patent US20230312753A1 (IMMUNORIZON, published 2023):

Key:
[1] = target: T1, NKG2A/CD94 on CHO cells (CHOK1-NKG2A-CD94) (human, UniProt P26715 1-233; Q13241 1-179, limits assumed); test: FACS on CHO cells over-expressing ectopic NKG2A (NKG2A/CD94 by the legend) (FIG. 45E)
T1 construct: whole, on cells; also called CHO cells over-expressing NKG2A/CD94; CHO cell line over expressing ectopic NKG2A
Protocol: (§1) Suspension cultured cells was harvested directly, and adherent cell were digested using TrypLE Express Enzyme (cat: 12604-013, supplier Life technologies). Centrifuge at 1000 rpm for 5 min and discard the supernatant. Cells are suspended at a concentration of 2×10⁶/mL in FACS buffer (2% FBS in PBS) and add 100 µL/well of cell suspension to the plate (cat #3799, supplier Corning). Centrifuging the plates at 2000 rpm for 5 min and discard the supernatant. Re-suspend the cells in 100 µL/well of Tribody set antibodies (400 nM start, 4-fold dilution, 8 point including 0 point) and incubate the plate for 60 min at 4° C. Centrifuge the plate at 2000 rpm, 4° C. for 5 min and discard supernatant. Then wash the cells 3 times with 170 µL FACS buffer. Re-suspend the cells at 100 µL/well with secondary antibody (goat anti-human Ig Fab-FITC, Cat # 2085-02, Southern biotech) with 1:400 dilution and incubate the plate for 30 min at 4° C. in dark. Centrifuge the plate at 2000 rpm, 4° C. for 5 min and discard supernatant. […] The fluorescence intensity of the staining was measured using flow cytometer (BD, FACSVerse). The geometric mean fluorescence intensity (GMFI; median fluorescence intensity (MFI)) of set antibodies staining was calculated (BD FACSuite software). Dose-response curves were generated and EC50s for thetrispecific variants binding were calculated using GraphPad Prism software.

[2] = target: T2, 5T4 on cells (NCI-H226 endogenous; CHO over-expressing 5T4) (UniProt Q13641 32-420, limits assumed); test: FACS on CHO cells over-expressing ectopic 5T4 (FIG. 45D)
T2 construct: whole, on cells
T2 sequence (looked up): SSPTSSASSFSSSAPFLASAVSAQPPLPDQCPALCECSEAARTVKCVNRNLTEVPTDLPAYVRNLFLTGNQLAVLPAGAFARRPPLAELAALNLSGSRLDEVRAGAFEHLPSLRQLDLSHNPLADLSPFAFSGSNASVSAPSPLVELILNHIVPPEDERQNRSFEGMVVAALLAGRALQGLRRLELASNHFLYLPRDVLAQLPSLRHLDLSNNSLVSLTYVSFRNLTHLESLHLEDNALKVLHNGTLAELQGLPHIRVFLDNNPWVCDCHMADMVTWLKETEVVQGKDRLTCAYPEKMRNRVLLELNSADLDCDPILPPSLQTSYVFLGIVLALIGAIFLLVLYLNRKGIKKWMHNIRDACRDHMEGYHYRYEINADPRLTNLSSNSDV
Protocol: (§2) Then wash the cells 3 times with 170 µL FACS buffer. Re-suspend the cells at 100 µL/well with secondary antibody (goat anti-human Ig Fab-FITC, Cat # 2085-02, Southern biotech) with 1:400 dilution and incubate the plate for 30 min at 4° C. in dark. Centrifuge the plate at 2000 rpm, 4° C. for 5 min and discard supernatant. Then wash the cells 3 times with FACS buffer and analyze the sample with FACS verse. The fluorescence intensity of the staining was measured using flow cytometer (BD, FACSVerse). The geometric mean fluorescence intensity (GMFI; median fluorescence intensity (MFI)) of set antibodies staining was calculated (BD FACSuite software). Dose-response curves were generated and EC50s for thetrispecific variants binding were calculated using GraphPad Prism software.
(§3) Results: The expressed trispecific constructs were analyzed for their binding to cells expressing endogenous CD3ε, 5T4 and NKG2A/NKG2D. […] (FIG. 45F).

[3] = target: T3, hCD3epsilon-His (recombinant human CD3 epsilon) (human, UniProt P07766 23-126); test: ELISA on coated hCD3epsilon-His (FIG. 43A)
T3 construct: Bought protein; also called recombinant hCD3ε protein; human CD3ε
T3 sequence (P07766 23-126 limits assumed): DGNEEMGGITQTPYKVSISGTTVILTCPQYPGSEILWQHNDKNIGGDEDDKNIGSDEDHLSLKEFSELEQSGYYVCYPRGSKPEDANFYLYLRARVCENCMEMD
Protocol: Methods: ELISA binding of Tribody/ProTribody antibody constructs to antigens: Dilute target protein (hCD3epsilon-His (cat # 10977-H08S, supplier Sino Biological); h5T4-His (cat# 19845-H08H, supplier Sino Biological); NKG2A-CD94-ECD-hFc, Lot:20200724002, provided by CP; or NKG2D-ECD-hFc, Lot: 20200413002, provided by CP) into PBS with final concentration of 0.01 µg/mL for hCD3epsilon-His, 0.3 µg/mL for h5T4-His, 1 µg/mL for NKG2A-CD94-ECD-hFc and 0.7 µg/mL for hNKG2D-ECD-hFc respectively and coat 100 µL/well on ELISA plate (cat: 9018, supplier Corning) respectively. Incubate O/N, 4° C. The plates were blocked with 250 µL 1% BSA in PBST for 1 hr at 37° C.Wash 4 times with PBST. All the washes are done using Biotek (Elx 405). All the Tribody set antibodies were diluted to 400 nM and make 4-fold serially dilutions (12 points, including 0 point). Add 100 µL/well diluted antibody constructs solution to plate, incubate for 1 hr at 37° C.Wash 4 times with PBST. Add 100 µL/well anti-human kappa light chain-HRP (1:10000), incubate for 0.5 hr at 37° C. Wash 4 times with PBST. 100 µL/well of TMB substrate was added and incubated at room temperature for 5 min. 100 µL/well of 1N HCl to terminate reaction. Plates were read using ELISA plate reader at 450 nm wavelength (instrunet SpectraMax M5e). […]

[4] = target: T2, 5T4 on cells (NCI-H226 endogenous; CHO …); test: FACS on NCI-H226 cells, endogenous 5T4 (FIG. 45B)
Protocol: as §1

[5] = target: T1, NKG2A/CD94 on CHO cells …; test: FACS on CHO cells over-expressing human NKG2A (FIG. 45F)
Protocol: as §2, §3

T1 sequence (P26715 whole entry, chain 1 of 2): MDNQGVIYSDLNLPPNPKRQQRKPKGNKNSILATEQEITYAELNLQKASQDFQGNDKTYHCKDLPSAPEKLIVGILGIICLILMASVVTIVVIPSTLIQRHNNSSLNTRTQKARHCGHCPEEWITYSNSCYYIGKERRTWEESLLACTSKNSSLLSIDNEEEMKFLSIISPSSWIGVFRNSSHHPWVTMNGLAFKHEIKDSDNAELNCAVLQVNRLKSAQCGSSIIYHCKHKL
T1 sequence (Q13241 whole entry, chain 2 of 2): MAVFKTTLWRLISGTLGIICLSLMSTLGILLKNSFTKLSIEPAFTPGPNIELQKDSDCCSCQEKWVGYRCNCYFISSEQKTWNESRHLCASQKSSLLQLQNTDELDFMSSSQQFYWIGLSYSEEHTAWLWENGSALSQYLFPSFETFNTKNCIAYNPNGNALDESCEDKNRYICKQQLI

B1: IM-1062 Tribody (other)
heavy: GGSGGSEVQLVESGGGLVQPGGSLRLSCAASGFTFNTYAMNWVRQAPGKGLEWVARIRSKYNNYATYYADSVKDRFTISRDDSKNTLYLQMNSLRAEDTAVYYCVRHGNFGNSYVSWFAYWGQGTMVTVSSASTKGPSVFPLAPSSKSTSGGTAALGCLVKDYFPEPVTVSWNSGALTSGVHTFPAVLQSSGLYSLSSVVTVPSSSLGTQTYICNVNHKPSNTKVDKRVEPKSCPPCGGGGSDIQMTQSPSSLSASVGDRVTITCRASENIYSYLAWYQQKPGKAPKLLIYNAKTLAEGVPSRFSGSGSGTDFTLTISSLQPEDFATYYCQHHYGTPRTFGGGTKVEIKGGGGSGGGGSGGGGSGGGGSQVQLVQSGAEVKKPGASVKVSCKASGYTFTSYWMNWVRQAPGQGLEWMGRIDPYDSETHYAQKLQGRVTMTTDTSTSTAYMELRSLRSDDTAVYYCARGGYDFDVGTLYWFFDVWGQGTTVTVSS
light: GGSGGSQAVVTQEPSLTVSPGGTVTLTCRSSTGAVTTSNYANWVQQKPGQAPRGLIGGTNKRAPGTPARFSGSLLGGKAALTLSGVQPEDEAEYYCALWYSNLWVFGGGTKLTVLGQPKAAPSVTLFPPSSEELQANKATLVCLISDFYPGAVTVAWKADSSPVKAGVETTTPSKQSNNKYAASSYLSLTPEQWKSHRSYSCQVTHEGSTVEKTVAPTECPPCSGGGSDIQMTQSPSSLSASVGDRVTITCRASQGISNYLAWFQQKPGKAPKSLIYRANRLQSGVPSRFSGSGSGTDFTLTISSLQPEDVATYYCLQYDDFPWTFGQGTKLEIKGGGGSGGGGSGGGGSGGGGSQVQLVQSGAEVKKPGASVKVSCKASGYTFTSFWMHWVRQAPGQGLEWMGRIDPNRGGTEYNEKAKSRVTMTADKSTSTAYMELSSLRSEDTAVYYCAGGNPYYPMDYWGQGTTVTVSS
notes: Tri-specific antibody (Tribody): anti-CD3 epsilon Fab with an anti-5T4 scFv and an anti-NKG2A scFv, no regulatory domain; also called the Tribody format
Q: What does the source list for B1?
A: EC50 [1]: 29 nM; EC50 [2]: 0.9 nM; EC50 [3]: 1.69 nM; EC50 [4]: 1.78 nM; EC50 [5]: 16 nM
